Assay results reported in patent US20150344570A1 (published 2015).

T1: FcγRIIb extracellular domain with C-terminal His tag (human, UniProt P31994 43-217)
T1 construct: extracellular domain; soluble analyte in Biacore; also called FcgRIIb; not shown: His tag at the C terminus
T1 sequence (looked up): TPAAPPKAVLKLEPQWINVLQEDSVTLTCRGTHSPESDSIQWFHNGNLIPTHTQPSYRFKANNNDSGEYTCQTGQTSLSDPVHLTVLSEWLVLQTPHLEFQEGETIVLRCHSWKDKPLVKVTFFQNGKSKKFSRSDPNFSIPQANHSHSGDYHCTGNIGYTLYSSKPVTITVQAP


Key:
[1] = biological target: T1, FcγRIIb extracellular domain with …; test: SPR, binding relative to GpH7-A5/GpH7-B3/GpL16-k0 = 100
[2] = biological target: T2, FcγRIa extracellular domain with C-terminal His tag (human, UniProt P12314 16-292); test: as above
T2 construct: extracellular domain; soluble analyte in Biacore; also called FcgRI; not shown: His tag at the C terminus
T2 sequence (P12314 16-292): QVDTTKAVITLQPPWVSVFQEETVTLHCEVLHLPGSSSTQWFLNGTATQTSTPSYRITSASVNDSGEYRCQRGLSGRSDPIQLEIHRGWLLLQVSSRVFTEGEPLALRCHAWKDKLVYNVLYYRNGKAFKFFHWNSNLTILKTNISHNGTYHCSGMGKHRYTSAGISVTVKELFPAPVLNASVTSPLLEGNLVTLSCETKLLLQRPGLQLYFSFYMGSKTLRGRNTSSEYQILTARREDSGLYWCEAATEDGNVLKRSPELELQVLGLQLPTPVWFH

| Binder | He/Con_2b [1] | He/Con_1a [2] |
| --- | --- | --- |
| GpH7-A5/GpH7-B3 variant E333_08L/GpL16-k0 (antibody, human IgG1, kappa, change in the GpH7-B3 H chain only; also called He Ab) heavy 1: not shown heavy 2: not shown light: DIVMTQSPLSLPVTPGEPASISCQASESLVHSNRNTYLHWYLQKPGQSPQLLIYKVSNRFSGVPDRFSGSGSGTDFTLKISRVEAEDVGVYYCSQNTHVPPTFGQGTKVEIERTVAAPSVFIFPPSDEQLKSGTASVVCLLNNFYPREAKVQWKVDNALQSGNSQESVTEQDSKDSTYSLSSTLTLSKADYEKHKVYACEVTHQGLSSPVTKSFNRGEC | 95 % of control | 102 % of control |
| GpH7-A5/GpH7-B3 variant E333_09D/GpL16-k0 (antibody, human IgG1, kappa, change in the GpH7-B3 H chain only; also called He Ab) heavy 1: not shown heavy 2: not shown light: DIVMTQSPLSLPVTPGEPASISCQASESLVHSNRNTYLHWYLQKPGQSPQLLIYKVSNRFSGVPDRFSGSGSGTDFTLKISRVEAEDVGVYYCSQNTHVPPTFGQGTKVEIERTVAAPSVFIFPPSDEQLKSGTASVVCLLNNFYPREAKVQWKVDNALQSGNSQESVTEQDSKDSTYSLSSTLTLSKADYEKHKVYACEVTHQGLSSPVTKSFNRGEC | 94.3 % of control | 104 % of control |
| GpH7-A5/GpH7-B3 variant E333_16H/GpL16-k0 (antibody, human IgG1, kappa, change in the GpH7-B3 H chain only; also called He Ab) heavy 1: not shown heavy 2: not shown light: DIVMTQSPLSLPVTPGEPASISCQASESLVHSNRNTYLHWYLQKPGQSPQLLIYKVSNRFSGVPDRFSGSGSGTDFTLKISRVEAEDVGVYYCSQNTHVPPTFGQGTKVEIERTVAAPSVFIFPPSDEQLKSGTASVVCLLNNFYPREAKVQWKVDNALQSGNSQESVTEQDSKDSTYSLSSTLTLSKADYEKHKVYACEVTHQGLSSPVTKSFNRGEC | 83.3 % of control | 101 % of control |
| GpH7-A5/GpH7-B3 variant E333_06M/GpL16-k0 (antibody, human IgG1, kappa, change in the GpH7-B3 H chain only; also called He Ab) heavy 1: not shown heavy 2: not shown light: DIVMTQSPLSLPVTPGEPASISCQASESLVHSNRNTYLHWYLQKPGQSPQLLIYKVSNRFSGVPDRFSGSGSGTDFTLKISRVEAEDVGVYYCSQNTHVPPTFGQGTKVEIERTVAAPSVFIFPPSDEQLKSGTASVVCLLNNFYPREAKVQWKVDNALQSGNSQESVTEQDSKDSTYSLSSTLTLSKADYEKHKVYACEVTHQGLSSPVTKSFNRGEC | 85.4 % of control | 102 % of control |
| GpH7-A5/GpH7-B3 variant I336_02A/GpL16-k0 (antibody, human IgG1, kappa, change in the GpH7-B3 H chain only; also called He Ab) heavy 1: not shown heavy 2: not shown light: DIVMTQSPLSLPVTPGEPASISCQASESLVHSNRNTYLHWYLQKPGQSPQLLIYKVSNRFSGVPDRFSGSGSGTDFTLKISRVEAEDVGVYYCSQNTHVPPTFGQGTKVEIERTVAAPSVFIFPPSDEQLKSGTASVVCLLNNFYPREAKVQWKVDNALQSGNSQESVTEQDSKDSTYSLSSTLTLSKADYEKHKVYACEVTHQGLSSPVTKSFNRGEC | 84.9 % of control | 106 % of control |

Now from value to binder:

| He/Con_2b [1] | He/Con_1a [2] | Binder |
| --- | --- | --- |
| 80.6 % of control | 102 % of control | GpH7-A5/GpH7-B3 variant E333_11K/GpL16-k0 (antibody, human IgG1, kappa, change in the GpH7-B3 H chain only; also called He Ab) heavy 1: not shown heavy 2: not shown light: DIVMTQSPLSLPVTPGEPASISCQASESLVHSNRNTYLHWYLQKPGQSPQLLIYKVSNRFSGVPDRFSGSGSGTDFTLKISRVEAEDVGVYYCSQNTHVPPTFGQGTKVEIERTVAAPSVFIFPPSDEQLKSGTASVVCLLNNFYPREAKVQWKVDNALQSGNSQESVTEQDSKDSTYSLSSTLTLSKADYEKHKVYACEVTHQGLSSPVTKSFNRGEC |
| 41.7 % of control | 101 % of control | GpH7-A5/GpH7-B3 variant P329_01G/GpL16-k0 (antibody, human IgG1, kappa, change in the GpH7-B3 H chain only; also called He Ab) heavy 1: not shown heavy 2: not shown light: DIVMTQSPLSLPVTPGEPASISCQASESLVHSNRNTYLHWYLQKPGQSPQLLIYKVSNRFSGVPDRFSGSGSGTDFTLKISRVEAEDVGVYYCSQNTHVPPTFGQGTKVEIERTVAAPSVFIFPPSDEQLKSGTASVVCLLNNFYPREAKVQWKVDNALQSGNSQESVTEQDSKDSTYSLSSTLTLSKADYEKHKVYACEVTHQGLSSPVTKSFNRGEC |
| 48.9 % of control | 100 % of control | GpH7-A5/GpH7-B3 variant I332_12R/GpL16-k0 (antibody, human IgG1, kappa, change in the GpH7-B3 H chain only; also called He Ab) heavy 1: not shown heavy 2: not shown light: DIVMTQSPLSLPVTPGEPASISCQASESLVHSNRNTYLHWYLQKPGQSPQLLIYKVSNRFSGVPDRFSGSGSGTDFTLKISRVEAEDVGVYYCSQNTHVPPTFGQGTKVEIERTVAAPSVFIFPPSDEQLKSGTASVVCLLNNFYPREAKVQWKVDNALQSGNSQESVTEQDSKDSTYSLSSTLTLSKADYEKHKVYACEVTHQGLSSPVTKSFNRGEC |
| 80.4 % of control | 102 % of control | GpH7-A5/GpH7-B3 variant E333_12R/GpL16-k0 (antibody, human IgG1, kappa, change in the GpH7-B3 H chain only; also called He Ab) heavy 1: not shown heavy 2: not shown light: DIVMTQSPLSLPVTPGEPASISCQASESLVHSNRNTYLHWYLQKPGQSPQLLIYKVSNRFSGVPDRFSGSGSGTDFTLKISRVEAEDVGVYYCSQNTHVPPTFGQGTKVEIERTVAAPSVFIFPPSDEQLKSGTASVVCLLNNFYPREAKVQWKVDNALQSGNSQESVTEQDSKDSTYSLSSTLTLSKADYEKHKVYACEVTHQGLSSPVTKSFNRGEC |
| 96.2 % of control | 102 % of control | GpH7-A5/GpH7-B3 variant E333_07I/GpL16-k0 (antibody, human IgG1, kappa, change in the GpH7-B3 H chain only; also called He Ab) heavy 1: not shown heavy 2: not shown light: DIVMTQSPLSLPVTPGEPASISCQASESLVHSNRNTYLHWYLQKPGQSPQLLIYKVSNRFSGVPDRFSGSGSGTDFTLKISRVEAEDVGVYYCSQNTHVPPTFGQGTKVEIERTVAAPSVFIFPPSDEQLKSGTASVVCLLNNFYPREAKVQWKVDNALQSGNSQESVTEQDSKDSTYSLSSTLTLSKADYEKHKVYACEVTHQGLSSPVTKSFNRGEC |
